Measured values published in patent US20140242093A1, “METHODS AND COMPOSITIONS FOR MODULATING THE INNATE IMMUNE RESPONSE AND/OR MYOGENESIS IN A MAMMALIAN SUBJECT” (FRED HUTCHINSON CANCER RESEARCH CENTER, priority 2011, published 2014).

Test system: control human primary myoblasts
Experiment: Expression microarray of primary myoblasts transduced with lentivirus carrying DUX4-fl, DUX4-s or GFP
Procedure: Primary human myoblasts were collected and cultured as previously described (Snider et al., 2010). Primary myoblasts were maintained at or below 70% confluency for proliferation. For differentiation, cells were allowed to reach 95-100% confluency in growth medium. Once confluency was reached, the cells were changed to differentiation medium (F10 media supplemented with 1% horse serum, 10 μg/mL insulin, and 10 μg/mL transferrin, penicillin/streptomycin) and maintained for 4 days. Human RD cells were grown in DMEM in 10% bovine calf serum (Hyclone) and penicillin/streptomycin. The primary myoblasts were transduced with lentivirus carrying DUX-fl, DUX4- or GFP (MOI=15).
Expression microarrays were performed on the transduced cells at 24 hours after transduction as follows. […] Samples were analyzed by Illumina Human Whole Genome microarrays. Probe intensities were corrected, normalized, and summarized by the Lumi package of Bioconductor (Du et al., 2008). Differentially expressed genes were identified by the LIMMA package of Bioconductor (Wettenhall and Smyth, 2004). Gene set enrichment analysis (GSEA) was performed using the Bioconductor GOstats package (Falcon and Gentleman, 2007).

B1: DUX4-s: short splice form of DUX4 (SEQ ID NO:112), keeps the double-homeobox domains, lacks the C-terminal activation domain (protein, listed as Homo sapiens)
chain: MALPTPSDSTLPAEARGRGRRRRLVWTPSQSEALRACFERNPYPGIATRERLAQAIGIPEPRVQIWFQNERSRQLRQHRRESRPWPGRRGPPEGRRKRTAVTGSQTALLLRAFEKDRFPGIAAREELARETGLPESRIQIWFQNRRARHPGQGGRAPAQV
B1 showed an FLJ45337 expression fc (Refseq NM_207465.1) of −0.2461, an ATP2B1 fc (Refseq NM_001001323.1) of −0.7039 and an FLJ45139 expression fc (Refseq NM_001001692.1) of 0.1009. The OR2T34 expression fc (Refseq NM_001001821.1) was −0.05408, the “fc of GPM6B (expression array)” value (Refseq NM_001001995.1) was −1.119 and the NT5C1B expression fc (Refseq NM_001002006.1) was −0.03655. For the same molecule, the “fc of NT5C3 (expression array)” value (Refseq NM_001002010.1) was 1.882, the RAB11FIP1 expression fc (Refseq NM_001002814.1) was −0.4765 and the “fc of LEPR (expression array)” value (Refseq NM_001003679.1) was −0.5494. The ZNF705A expression fc (Refseq NM_001004328.1) was −0.06059, the HIST2H3A expression fc (Refseq NM_001005464.2) was −0.05203 and the GBA fc (Refseq NM_001005742.1) was 0.289. It also gave an SIAH1 expression fc (Refseq NM_001006610.1) of −0.0793, an OPTN fc (Refseq NM_001008213.1) of −0.5727 and an SLC7A2 expression fc (Refseq NM_001008539.2, cultured human skeletal muscle) of −0.1055. For the same molecule, the CXCR4 expression fc (Refseq NM_001008540.1) was −0.0521, the “fc of CLSTN1 (expression array)” value (Refseq NM_001009566.1) was −0.2768 and the PRAMEF4 expression fc (Refseq NM_001009611.1) was 0.0423. The C6orf191 expression fc (Refseq NM_001010876.1) was −0.05752, the PRAMEF6 expression fc (Refseq NM_001010889.2) was −0.06189 and the PRAMEF9 expression fc (Refseq NM_001010890.1) was −0.07265. The PRAMEF8 expression fc (Refseq NM_001012276.1) was 0.1662, the PRAMEF7 expression fc (Refseq NM_001012277.1) was 0.106 and the “fc of MYPOP (expression array)” value (Refseq NM_001012643.2) was −0.03552. The PRAMEF5 expression fc (Refseq NM_001013407.1) was 0.1054, the HNRNPCL1 expression fc (Refseq NM_001013631.1) was −0.1035 and the RFPL4B expression fc (Refseq NM_001013734.2) was −0.1031. It also gave an ODF3B fc (Refseq NM_001014440.2) of 0.4296, a DNAJC25 expression fc (Refseq NM_001015882.2) of −0.5072 and a KCNK2 fc (Refseq NM_001017425.2) of 0.2137. For the same molecule, the CCDC58 expression fc (Refseq NM_001017928.2) was 0.07678, the “fc of ATP6AP1L (expression array)” value (Refseq NM_001017971.1) was 0.02803 and the SH3PXD2B fc (Refseq NM_001017995.1) was −0.01555. The ZBTB16 expression fc (Refseq NM_001018011.1, cultured human skeletal muscle) was 0.4921, the “fc of SERBP1 (expression array)” value (Refseq NM_001018069.1) was −1.179 and the SOD2 expression fc (Refseq NM_001024466.1, cultured human skeletal muscle) was 1.532. The “fc of RUNX2 (expression array)” value (Refseq NM_001024630.2) was 0.05524, the CLK1 expression fc (Refseq NM_001024646.1) was 0.0752 and the “fc of TGFBR2 (expression array)” value (Refseq NM_001024847.1) was 0.1743. The TSPAN4 fc (Refseq NM_001025235.1) was −0.1169, the “fc of RFX5 (expression array)” value (Refseq NM_001025603.1) was −0.06023 and the PSRC1 fc (Refseq NM_001032290.1) was −0.4871. For the same molecule, the OAS1 expression fc (Refseq NM_001032409.1, cultured human skeletal muscle) was 1.453, the ENTPD8 expression fc (Refseq NM_001033113.1) was 0.03523 and the RHOT1 fc (Refseq NM_001033566.1) was 0.3308. The CYFIP2 fc (Refseq NM_001037333.1) was −0.633, the “fc of PHYH (expression array)” value (Refseq NM_001037537.1) was −0.5757 and the “fc of EFEMP1 (expression array)” value (Refseq NM_001039348.1) was −0.2077. It also gave a PRAMEF10 expression fc (Refseq NM_001039361.1) of 0.008756, an ETNK1 expression fc (Refseq NM_001039481.1) of 0.06444 and an LOC440053 expression fc (Refseq NM_001039615.1) of −0.09982. For the same molecule, the CBLN3 fc (Refseq NM_001039771.2) was 0.1543, the HEY1 expression fc (Refseq NM_001040708.1) was −0.04271 and the “fc of UHRF1 (expression array)” value (Refseq NM_001048201.1) was −1.034. The DBNDD2 expression fc (Refseq NM_001048223.1) was 0.2257, the NCOR2 fc (Refseq NM_001077261.1) was −0.2241 and the “fc of NFKB2 (expression array)” value (Refseq NM_001077493.1) was 0.2202. The “fc of SLC29A1 (expression array)” value (Refseq NM_001078174.1) was −1.034, the DYNC2H1 expression fc (Refseq NM_001080463.1) was 0.04558 and the PRAMEF12 expression fc (Refseq NM_001080830.1) was 0.1269. It also gave an FRG2B expression fc (Refseq NM_001080998.1) of 0.1315, a DEFB103A expression fc (Refseq NM_001081551.2) of 0.06581 and a CPSF4 fc (Refseq NM_001081559.1) of −0.2674. For the same molecule, the “fc of GPD2 (expression array)” value (Refseq NM_001083112.1) was 1.197, the “fc of GPR1 (expression array)” value (Refseq NM_001098199.1) was 0.2201 and the HLA-F expression fc (Refseq NM_001098479.1, cultured human skeletal muscle) was 0.9368. It also gave an RFPL3 expression fc (Refseq NM_001098535.1) of −0.06033, a PRR4 expression fc (Refseq NM_001098538.1) of 0.1606 and an FAM156B fc (Refseq NM_001099684.1) of −0.1712.
